From paper PMC10030653, “ClpC2 protects mycobacteria against a natural antibiotic targeting ClpC1-dependent protein degradation” (Communications Biology, 2023)

Target: Mycobacterium tuberculosis ClpC2 (full length, wild type) (Mycobacterium tuberculosis)
Test: SEC

## Mycobacterium tuberculosis ClpC2 (full length, wild type) (natural protein)
  stoichiometry N: 2
